Common to all, as to assay: FACS on transfected HEK293T cells
Test [1] deals with T1, rabbit KLB (+N-ter FLAG) (rabbit).
T1 construct: expressed from KLB cDNA on HEK293T cells and read by FACS
T1 chain: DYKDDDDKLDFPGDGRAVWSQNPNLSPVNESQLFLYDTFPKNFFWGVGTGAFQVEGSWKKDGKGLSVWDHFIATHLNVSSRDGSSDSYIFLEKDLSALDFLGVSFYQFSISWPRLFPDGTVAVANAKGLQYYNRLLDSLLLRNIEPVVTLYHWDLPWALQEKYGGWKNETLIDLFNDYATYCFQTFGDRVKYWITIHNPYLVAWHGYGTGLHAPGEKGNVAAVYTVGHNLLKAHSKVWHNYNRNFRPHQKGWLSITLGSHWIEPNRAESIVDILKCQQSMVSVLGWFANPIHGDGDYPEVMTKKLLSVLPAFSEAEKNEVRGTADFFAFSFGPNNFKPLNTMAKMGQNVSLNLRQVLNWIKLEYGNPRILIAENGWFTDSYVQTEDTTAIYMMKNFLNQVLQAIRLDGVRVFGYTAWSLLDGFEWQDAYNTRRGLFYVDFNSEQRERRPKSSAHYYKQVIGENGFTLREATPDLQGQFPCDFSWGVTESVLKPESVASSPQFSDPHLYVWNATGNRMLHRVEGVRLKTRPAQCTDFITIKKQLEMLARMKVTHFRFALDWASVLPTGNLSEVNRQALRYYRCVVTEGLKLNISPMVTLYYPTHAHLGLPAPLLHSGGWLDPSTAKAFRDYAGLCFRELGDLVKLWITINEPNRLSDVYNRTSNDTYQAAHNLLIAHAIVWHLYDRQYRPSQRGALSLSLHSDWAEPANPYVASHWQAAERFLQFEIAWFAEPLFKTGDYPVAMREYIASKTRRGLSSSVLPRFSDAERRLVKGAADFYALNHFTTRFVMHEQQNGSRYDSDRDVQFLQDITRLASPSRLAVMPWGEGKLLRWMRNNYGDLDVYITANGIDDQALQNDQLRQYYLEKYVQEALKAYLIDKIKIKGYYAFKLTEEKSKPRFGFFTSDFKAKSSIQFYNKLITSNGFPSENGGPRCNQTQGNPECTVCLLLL
How it is done:
(§1) Species cross reactivity of the disclosed anti-KLB antibodies were analyzed by FACS analysis using KLB cDNA from mouse, rat, rabbit, cynomolgus monkey and rhesus monkey cloned into pRK mammalian expression vectors transiently transfected into HEK293T cells. The KLB extracellular domain polypeptide sequences that were expressed are as follows: […]

Test [2] deals with T2, mouse KLB (mouse, UniProt Q99N32 53-990).
T2 construct: expressed from KLB cDNA on HEK293T cells and read by FACS; also called msKLB
T2 sequence: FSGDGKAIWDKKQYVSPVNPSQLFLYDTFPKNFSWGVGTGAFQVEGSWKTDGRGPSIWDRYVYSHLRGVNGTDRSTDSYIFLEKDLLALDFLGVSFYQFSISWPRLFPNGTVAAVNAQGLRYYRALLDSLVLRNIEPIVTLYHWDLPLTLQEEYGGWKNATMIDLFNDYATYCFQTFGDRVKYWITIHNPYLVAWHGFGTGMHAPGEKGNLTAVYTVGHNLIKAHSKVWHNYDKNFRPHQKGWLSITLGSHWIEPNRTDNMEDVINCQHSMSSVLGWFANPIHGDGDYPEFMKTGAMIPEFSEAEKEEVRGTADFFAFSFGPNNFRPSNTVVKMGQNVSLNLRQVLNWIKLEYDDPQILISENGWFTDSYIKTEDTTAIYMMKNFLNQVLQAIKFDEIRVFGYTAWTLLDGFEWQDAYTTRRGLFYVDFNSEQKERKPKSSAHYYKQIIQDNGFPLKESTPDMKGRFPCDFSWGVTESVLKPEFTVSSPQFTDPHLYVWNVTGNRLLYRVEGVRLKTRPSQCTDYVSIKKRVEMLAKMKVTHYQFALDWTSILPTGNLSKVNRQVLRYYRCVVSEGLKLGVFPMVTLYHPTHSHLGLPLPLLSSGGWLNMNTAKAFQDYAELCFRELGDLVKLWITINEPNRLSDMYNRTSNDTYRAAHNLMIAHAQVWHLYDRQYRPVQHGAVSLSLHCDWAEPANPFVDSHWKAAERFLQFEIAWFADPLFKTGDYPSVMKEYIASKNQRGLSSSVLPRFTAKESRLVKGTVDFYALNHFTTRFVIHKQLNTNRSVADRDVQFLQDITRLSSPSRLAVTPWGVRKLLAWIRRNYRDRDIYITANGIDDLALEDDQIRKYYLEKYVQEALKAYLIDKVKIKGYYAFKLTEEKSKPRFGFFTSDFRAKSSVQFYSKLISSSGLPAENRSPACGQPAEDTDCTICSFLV
How it is done: as §1

In test [3] the target is T3, rhesus monkey KLB (+N-ter FLAG) (rhesus monkey, UniProt Q86Z14 53-992 (human entry)).
T3 construct: expressed from KLB cDNA on HEK293T cells and read by FACS
T3 chain: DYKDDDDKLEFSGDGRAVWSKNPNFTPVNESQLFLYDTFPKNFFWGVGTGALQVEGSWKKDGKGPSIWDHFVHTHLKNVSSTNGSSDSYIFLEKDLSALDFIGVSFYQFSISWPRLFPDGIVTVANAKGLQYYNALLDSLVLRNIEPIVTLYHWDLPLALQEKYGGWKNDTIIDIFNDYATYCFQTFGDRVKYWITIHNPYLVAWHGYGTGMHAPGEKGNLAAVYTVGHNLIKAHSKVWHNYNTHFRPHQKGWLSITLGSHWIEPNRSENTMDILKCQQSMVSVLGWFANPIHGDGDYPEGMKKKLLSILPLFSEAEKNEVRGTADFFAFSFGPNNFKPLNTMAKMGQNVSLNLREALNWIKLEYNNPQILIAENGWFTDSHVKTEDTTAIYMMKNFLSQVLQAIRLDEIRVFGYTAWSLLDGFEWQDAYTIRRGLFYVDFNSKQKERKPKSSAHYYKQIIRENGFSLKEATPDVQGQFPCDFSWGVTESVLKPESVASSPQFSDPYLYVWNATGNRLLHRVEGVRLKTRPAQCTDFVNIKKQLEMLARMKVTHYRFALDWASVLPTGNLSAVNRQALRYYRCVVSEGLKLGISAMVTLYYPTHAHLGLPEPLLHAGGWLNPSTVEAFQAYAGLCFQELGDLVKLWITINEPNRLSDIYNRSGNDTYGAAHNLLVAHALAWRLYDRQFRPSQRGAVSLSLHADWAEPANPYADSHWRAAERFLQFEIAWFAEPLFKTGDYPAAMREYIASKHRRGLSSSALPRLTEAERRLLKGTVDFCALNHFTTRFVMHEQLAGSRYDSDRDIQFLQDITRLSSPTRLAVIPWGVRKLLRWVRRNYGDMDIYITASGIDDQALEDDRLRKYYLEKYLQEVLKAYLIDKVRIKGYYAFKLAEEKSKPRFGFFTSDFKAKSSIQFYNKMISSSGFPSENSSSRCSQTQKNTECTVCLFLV
As for the experimental part:
as §1

The text below walks through data of patent publication US20220064331A1 (Genentech, published 2022).

B1: 11D4 (antibody, V domains shown)
VH: QVQVKESGPGLVAPSQSLSITCTVSGFSLTNYGVSWIRQPPGKGLEWLGVIWGDGSINYHSALISRLTITKDNSKSQVFLKLNSLEADDTATYYCAKTHDWFDYWGQGTLVTVSA
VL: DIQMTQTPSSLSASLGDRVTINCRASQDISNYFNWYQQKPNGTIKLLIYYTSRLQSGVPSRFSGSGSGTDYSLTISNLEQEDKATYFCHQVRTLPWTFGGGTKLEIK
notes: murine hybridoma-derived anti-KLB antibody; also called KLBmAb5
As to B1, the values for the binding result in test [1], in test [2] and in test [3] were “binds”, “no binding” and “binds”, respectively.

B2: 46C3 (antibody, V domains shown)
VH: EVQLQQSGAELVKPGASVKLSCTASDFNIIDTYIHWVKQRPEQGLEWIGRIDPANGNTKYDPKFQDKAALTSDTDSNTAYLLFNSLTSEDTAVYYCARGTSYSWFAYWGQGTLVSVSA
VL: AVLMTQTPLSLPVSLGDQASISCRSSQNIVHSDGNTYLEWYLQKPGQSPKLLIYKVSNRFSGVPDRFSGSGSGRDFTLKISRVEAGDLGVYYCFQGSHVLTFGAGTRLELK
notes: murine hybridoma-derived anti-KLB antibody
For the molecule B2, the binding result in test [1] is “binds”; in test [2], “no binding”; in test [3], “no binding”.

B3: 14E6 (antibody, V domains shown)
VH: EVPLQQSGPELVKPGATVKISCKPSGDTFTEYTMNWVRQSHGKSLEWIGGINPNNGETSYNQKFKGKATLTVDKSSSTAFMDLRILTSEDSAVYFCARKTTNYWGQGTTLIVSS
VL: DIQMTQSPSSLSASLGERVSLTCRASQEISGYLSWLQQKPDGTIKRLIYAASTLDSGVPRRFSGSRSGSDYSLTISSLESEDFADYYCLQYGSYPWTFGGGTKLELK
notes: as for B2
As to B3, the binding result in test [1], in test [2] and in test [3] was “binds” throughout.

B4: 6C1 (antibody, V domains shown)
VH: QVQLQQSGDELMKPGASVKISCKVTGNTFSSYWIEWVKQRPGHGLEWIGEILPGSDSTKYVEKFKVKATFTADTSSNTAYMQLSSLTSEDSAVYYCARGGYHYPGWLVYWGQGTLVTVSA
VL: DIVMTQSQKFMSTSVGDRVSVTCKASQNVDSYVAWYQQKAGQSPKPLIYSASYRFSGVPDRFTGSGSGTEFTLTISNVQSEDLAEYFCQQYNISPYTFGGGTKLEIK
notes: murine hybridoma-derived anti-KLB antibody; also called KLBmAb4
For the molecule B4, the binding result is “binds” in test [1], “no binding” in test [2] and “binds” in test [3].

B5: 14C10 (antibody, V domains shown)
VH: QVTLKESGPGILQPSQTLSLTCSFSGFSLSTSAMGIGWIRQPSGKGLEWLAHIWWDDDKRYNPALKSRLTISKDTSRNQVFLKIASVDTADTATYFCARIDGIYDGSFYAMDYWGQGTSVTVSS
VL: DIVLTQSPASLAVSLGQRATISCRASESVDSYGNSFMHWYQQKPGQPPKLLIYRASNLESGIPARFSGSGSRTDFTLTINPVEADDVANYYCQQSNEDYTFGGGTKLEIK
notes: murine hybridoma-derived anti-KLB antibody; also called KLBmAb3
With B5, the figures for the binding result in test [1], in test [2] and in test [3] were “binds”, “no binding” and “binds”, respectively.

B6: 11F1 (antibody, V domains shown)
VH: EVQLVESGGGLVKPGGSLKLSCAPSGFTFSSYGISWVRQTPEKRLEWVATVSSGGRYTYYPDSVKGRFTISRDNAENTLYLQMSSLRSEDTAMYYCTRGGDGYALDYWGQGTSVTVSS
VL: DIQMTQTTSSLSASLGDRVTIICSASQVISNYLNWYQQKPDGTVKLLIYFTSSLRSGVPSRFSGSGSGTDYSLTISNLEPEDVATYFCQQYSKLPWTFGGGTKLELK
notes: as for B2
For B6, the figures for the binding result in test [1], in test [2] and in test [3] were “no binding”, “no binding” and “binds”, respectively.
